The assay concerns the target T1, human GPVI-Fc fusion protein (human, UniProt Q9HCN6 21-267, limits assumed).
T1 construct: also called human GPVI protein antigen
T1 sequence (looked up): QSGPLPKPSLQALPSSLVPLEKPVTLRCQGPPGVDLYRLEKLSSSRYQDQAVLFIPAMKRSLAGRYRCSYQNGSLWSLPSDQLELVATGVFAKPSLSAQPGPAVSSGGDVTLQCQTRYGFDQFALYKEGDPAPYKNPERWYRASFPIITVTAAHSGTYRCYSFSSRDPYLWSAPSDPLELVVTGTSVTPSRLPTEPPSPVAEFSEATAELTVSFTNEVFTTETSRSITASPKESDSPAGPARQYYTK
In words: BLI (Octet), GPVI-Fc on biosensor, 1:1 fit.

B1: HC5 LC1 humanized Fab (Fab, V domains shown)
VH: QVQLQESGPGLVKPSETLSLTCTVSGFSLTSYGVTWIRQPPGKGLEWIGVIWGDGSTNYHSGLRSRVTISVDTSKNQFSLKLSSVTAADTAVYYCAKPIYYDFDDDAMDYWGQGTSVTVSS
VL: EIVLTQSPSSLSASVGDRVTITCKASQNVGTYVAWFQQKPGKAPKSLIYSASYRCSGVPSKFSGSGSGTDFTLTISSLQPEDFATYYCHQYNNYPLTFGQGTKLEIKR
notes: also called VH5:VL1
B1: the affinity, expressed as Kd, was 333 pM; the koff – broadly, the rate constant with which the complex falls apart – worked out at 0.000261 s⁻¹; the kon – broadly, a measure of how fast the partners come together – came to 782000 M⁻¹ s⁻¹.

B2: HC1 LC3 humanized Fab (Fab, V domains shown)
VH: QVQLQESGPGLVKPSETLSLTCTASGFSLTSYGVTWIRQPPGKGLEWIGVIWGDGSTNYHSGLRSRVTISVDTSKSQFSLKLSSVTAADTAVYYCAKPIYYDFDDDAMDYWGQGTLVTVSS
VL: DIQLTQSPSTLSASVGDRVTITCKASQNVGTYVAWYQQKPGKAPKLLIYSASYRCSGVPSRFSGSGSGTEFTLTISSLQPDDFTTYYCHQYNNYPLTFGQGTKVEIKR
notes: also called VH1:VL3
Turning to B2, the affinity, expressed as Kd, was 284 pM; the koff amounted to 0.000221 s⁻¹; the kon stood at 777000 M⁻¹ s⁻¹.

B3: HC3 LC1 humanized Fab (Fab, V domains shown)
VH: QVQLVESGGGVVQPGRSLRLSCVASGFSLTSYGVTWVRQAPGKGLEWVAVIWGDGSTNYHSGLRSRFTISRDNSKNTMFLQMNSLRADDTAVYYCAKPIYYDFDDDAMDYWGQGTLVTVSS
VL: EIVLTQSPSSLSASVGDRVTITCKASQNVGTYVAWFQQKPGKAPKSLIYSASYRCSGVPSKFSGSGSGTDFTLTISSLQPEDFATYYCHQYNNYPLTFGQGTKLEIKR
notes: also called VH3:VL1
As to B3, the Kd (usually a measure of binding affinity in units of concentration) came to 353 pM, the koff was determined as 0.000587 s⁻¹ and the kon stood at 1.66e+06 M⁻¹ s⁻¹.

B4: HC5 LC4 humanized Fab (Fab, V domains shown)
VH: QVQLQESGPGLVKPSETLSLTCTVSGFSLTSYGVTWIRQPPGKGLEWIGVIWGDGSTNYHSGLRSRVTISVDTSKNQFSLKLSSVTAADTAVYYCAKPIYYDFDDDAMDYWGQGTSVTVSS
VL: DIVMTQSPATLSLSPGDRATLSCKASQNVGTYVAWYQQKPGQAPRLLIYSASYRCSGIPARFSGSGSGTDFTLTISSLQSEDFAVYYCHQYNNYPLTFGGGTKVEIKR
notes: also called VH5:VL4
In turn, B4 came in with a Kd of 554 pM, a koff of 0.000319 s⁻¹ and a kon of 576000 M⁻¹ s⁻¹.

B5: HC2 LC3 humanized Fab (Fab, V domains shown)
VH: EVQLVESGPGLVKPSETLSLTCTVSGFSLTSYGVTWIRQPPGKGLEWIGVIWGDGSTNYHSGLRSRVTISVDTSKNQFSLKLSSVTAADTAVYYCAKPIYYDFDDDAMDYWGQGTLVTVSS
VL: DIQLTQSPSTLSASVGDRVTITCKASQNVGTYVAWYQQKPGKAPKLLIYSASYRCSGVPSRFSGSGSGTEFTLTISSLQPDDFTTYYCHQYNNYPLTFGQGTKVEIKR
notes: also called VH2:VL3
For B5, the Kd was 250 pM, the koff is 0.000144 s⁻¹ and the on-rate (kon) was found to be 576000 M⁻¹ s⁻¹.

B6: HC1 LC1 humanized Fab (Fab, V domains shown)
VH: QVQLQESGPGLVKPSETLSLTCTASGFSLTSYGVTWIRQPPGKGLEWIGVIWGDGSTNYHSGLRSRVTISVDTSKSQFSLKLSSVTAADTAVYYCAKPIYYDFDDDAMDYWGQGTLVTVSS
VL: EIVLTQSPSSLSASVGDRVTITCKASQNVGTYVAWFQQKPGKAPKSLIYSASYRCSGVPSKFSGSGSGTDFTLTISSLQPEDFATYYCHQYNNYPLTFGQGTKLEIKR
notes: Monovalent 50 kDa Fab from CHO; also called VH1:VL1
For B6, the Kd was found to be 413 pM, the koff was 0.000332 s⁻¹ and the on-rate constant (kon) is 804000 M⁻¹ s⁻¹.

B7: HC2 LC4 humanized Fab (Fab, V domains shown)
VH: EVQLVESGPGLVKPSETLSLTCTVSGFSLTSYGVTWIRQPPGKGLEWIGVIWGDGSTNYHSGLRSRVTISVDTSKNQFSLKLSSVTAADTAVYYCAKPIYYDFDDDAMDYWGQGTLVTVSS
VL: DIVMTQSPATLSLSPGDRATLSCKASQNVGTYVAWYQQKPGQAPRLLIYSASYRCSGIPARFSGSGSGTDFTLTISSLQSEDFAVYYCHQYNNYPLTFGGGTKVEIKR
notes: also called VH2:VL4
Molecule B7 yielded a Kd of 693 pM, a koff of 0.0011 s⁻¹ and a kon of 1.59e+06 M⁻¹ s⁻¹.

B8: HC5 LC2 humanized Fab (Fab, V domains shown)
VH: QVQLQESGPGLVKPSETLSLTCTVSGFSLTSYGVTWIRQPPGKGLEWIGVIWGDGSTNYHSGLRSRVTISVDTSKNQFSLKLSSVTAADTAVYYCAKPIYYDFDDDAMDYWGQGTSVTVSS
VL: DIQMTQSPSSLSASVGDRVTITCKASQNVGTYVAWFQQRPGKAPKSLIYSASYRCSGVPSKFSGSGSGTDFTLTINSLQPEDFATYYCHQYNNYPLTFGQGTKVEIKR
notes: also called VH5:VL2
Molecule B8 registered an equilibrium dissociation constant (Kd) of 367 pM, a koff of 0.00024 s⁻¹ and a kon of 655000 M⁻¹ s⁻¹.

B9: HC5 LC3 humanized Fab (Fab, V domains shown)
VH: QVQLQESGPGLVKPSETLSLTCTVSGFSLTSYGVTWIRQPPGKGLEWIGVIWGDGSTNYHSGLRSRVTISVDTSKNQFSLKLSSVTAADTAVYYCAKPIYYDFDDDAMDYWGQGTSVTVSS
VL: DIQLTQSPSTLSASVGDRVTITCKASQNVGTYVAWYQQKPGKAPKLLIYSASYRCSGVPSRFSGSGSGTEFTLTISSLQPDDFTTYYCHQYNNYPLTFGQGTKVEIKR
notes: also called VH5:VL3
For the molecule B9, binding was put at a Kd of 637 pM, the off-rate constant (koff) came to 0.000437 s⁻¹ and the kon worked out at 686000 M⁻¹ s⁻¹.

B10: HC2 LC1 humanized Fab (Fab, V domains shown)
VH: EVQLVESGPGLVKPSETLSLTCTVSGFSLTSYGVTWIRQPPGKGLEWIGVIWGDGSTNYHSGLRSRVTISVDTSKNQFSLKLSSVTAADTAVYYCAKPIYYDFDDDAMDYWGQGTLVTVSS
VL: EIVLTQSPSSLSASVGDRVTITCKASQNVGTYVAWFQQKPGKAPKSLIYSASYRCSGVPSKFSGSGSGTDFTLTISSLQPEDFATYYCHQYNNYPLTFGQGTKLEIKR
notes: also called VH2:VL1
With B10, binding was put at a Kd of 269 pM, the koff was 0.000189 s⁻¹ and the kon worked out at 703000 M⁻¹ s⁻¹.

B11: HC1 LC4 humanized Fab (Fab, V domains shown)
VH: QVQLQESGPGLVKPSETLSLTCTASGFSLTSYGVTWIRQPPGKGLEWIGVIWGDGSTNYHSGLRSRVTISVDTSKSQFSLKLSSVTAADTAVYYCAKPIYYDFDDDAMDYWGQGTLVTVSS
VL: DIVMTQSPATLSLSPGDRATLSCKASQNVGTYVAWYQQKPGQAPRLLIYSASYRCSGIPARFSGSGSGTDFTLTISSLQSEDFAVYYCHQYNNYPLTFGGGTKVEIKR
notes: also called VH1:VL4
For the molecule B11, binding was put at a Kd of 496 pM, the koff was 0.000333 s⁻¹ and the kon was 671000 M⁻¹ s⁻¹.

B12: HC2 LC2 humanized Fab (Fab, V domains shown)
VH: EVQLVESGPGLVKPSETLSLTCTVSGFSLTSYGVTWIRQPPGKGLEWIGVIWGDGSTNYHSGLRSRVTISVDTSKNQFSLKLSSVTAADTAVYYCAKPIYYDFDDDAMDYWGQGTLVTVSS
VL: DIQMTQSPSSLSASVGDRVTITCKASQNVGTYVAWFQQRPGKAPKSLIYSASYRCSGVPSKFSGSGSGTDFTLTINSLQPEDFATYYCHQYNNYPLTFGQGTKVEIKR
notes: also called VH2:VL2; EMF602
In the case of B12, binding was characterised by a dissociation constant (Kd) of 175 pM, the koff came to 0.000162 s⁻¹ and the kon is 931000 M⁻¹ s⁻¹.

B13: HC0 LC0 chimeric Fab fragment (Fab, V domains shown)
VH: QVQLKESGPGLVQPSQSLSITCTVSGFSLTSYGVTWVRQPPGKGLEWLGVIWGDGSTNYHSGLRSRLSISRDDSKSQVFLKLNSLQTDDTATYYCAKPIYYDFDDDAMDYWGQGTSVTVSS
VL: DIVMTQSQKFMSTSVGDRVSVTCKASQNVGTYVAWFQQKPGQSPKTLIYSASYRCSGVPDRFTGSGSGTDFTLTISNVQSDDLAEYFCHQYNNYPLTFGAGTKLELRR
notes: Murine variable domains with human Ig constant domains, expressed in CHO; also called HC0 LCD; chimeric control antibody
For the molecule B13, the affinity, expressed as Kd, was 427 pM; the koff is 0.000212 s⁻¹; the kon was determined as 496000 M⁻¹ s⁻¹.

Values taken from patent EP4431526A1 (Emfret Analytics GmbH & Co. KG, dated 2024).
